Assay results published in the supplement of paper PMC5998384.

Tests used:
HeLa Kyoto [1] = assay: solubility in G1/S (NP-40 vs SDS abundance) (log2 ratio); higher = more soluble; conditions: cell cycle stage: G1/S
HeLa Kyoto [2] = assay: melting temperature (median over replicates), in situ; higher = more thermally stable
HeLa Kyoto [3] = assay: solubility change mitosis vs G1/S (difference of NP-40 vs SDS log2 ratios) (log2 ratio difference); higher = more soluble in mitosis
HeLa Kyoto [4] = assay: thermal stability score vs G1/S (z-score of summed log2 fold changes over temperatures); higher = more thermally stable than in G1/S
[5] = cell cycle stage: early G1 (4.5 h after nocodazole release)
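Wherever melting temperature (median over replicates), in situ is given: HeLa Kyoto cells synchronized by double thymidine or nocodazole block, proteins quantified by TMT10plex mass spectrometry, three independent biological replicates.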
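Wherever solubility change mitosis vs G1/S (difference of NP-40 vs SDS log2 ratios) is given: synchronized HeLa Kyoto cells (double thymidine block for G1/S, nocodazole release for mitosis), protein amounts in NP-40 versus SDS lysates quantified by mass spectrometry, three biological replicates.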
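Wherever solubility in G1/S (NP-40 vs SDS abundance) is given: HeLa Kyoto cells arrested at G1/S by double thymidine block, proteins quantified by TMT10plex mass spectrometry in mild NP-40 versus SDS extracts, three biological replicates.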
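Wherever thermal stability score vs G1/S (z-score of summed log2 fold changes over temperatures) is given: synchronized HeLa Kyoto cells, proteins quantified by TMT10plex mass spectrometry, three biological replicates, mitosis taken 0.5 h after nocodazole release, G1/S directly after double thymidine block.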

Row | Sequence | solubility in G1/S (log2) (HeLa Kyoto [1]) | melting temperature (HeLa Kyoto [2]; cell cycle stage: G1/S) | melting temperature (HeLa Kyoto [2]; cell cycle stage: mitosis) | solubility change mitosis (log2) (HeLa Kyoto [3]) | thermal stability score (HeLa Kyoto [4]; [5]) | thermal stability score (HeLa Kyoto [4]; cell cycle stage: mitosis)
1 | MATAATSPALKRLDLRDPAALFETHGAEEIRGLERQVRAEIEHKKEELRQMVGERYRDLIEAADTIGQMRRCAVGLVDAVKATDQYCARLRQAGSAAPRPPRAQQPQQPSQEKFYSMAAQIKLLLEIPEKIWSSMEASQCLHATQLYLLCCHLHSLLQLDSSSSRYSPVLSRFPILIRQVAAASHFRSTILHESKMLLKCQGVSDQAVAEALCSIMLLEESSPRQALTDFLLARKATIQKLLNQPHHGAGIKAQICSLVELLATTLKQAHALFYTLPEGLLPDPALPCGLLFSTLETITGQHPAGKGTGVLQEEMKLCSWFKHLPASIVEFQPTLRTLAHPISQEYLKDTLQKWIHMCNEDIKNGITNLLMYVKSMKGLAGIRDAMWELLTNESTNHSWDVLCRRLLEKPLLFWEDMMQQLFLDRLQTLTKEGFDSISSSSKELLVSALQELESSTSNSPSNKHIHFEYNMSLFLWSESPNDLPSDAAWVSVANRGQFASSGLSMKAQAISPCVQNFCSALDSKLKVKLDDLLAYLPSDDSSLPKDVSPTQAKSSAFDRYADAGTVQEMLRTQSVACIKHIVDCIRAELQSIEEGVQGQQDALNSAKLHSVLFMARLCQSLGELCPHLKQCILGKSESSEKPAREFRALRKQGKVKTQEIIPTQAKWQEVKEVLLQQSVMGYQVWSSAVVKVLIHGFTQSLLLDDAGSVLATATSWDELEIQEEAESGSSVTSKIRLPAQPSWYVQSFLFSLCQEINRVGGHALPKVTLQEMLKSCMVQVVAAYEKLSEEKQIKKEGAFPVTQNRALQLLYDLRYLNIVLTAKGDEVKSGRSKPDSRIEKVTDHLEALIDPFDLDVFTPHLNSNLHRLVQRTSVLFGLVTGTENQLAPRSSTFNSQEPHNILPLASSQIRFGLLPLSMTSTRKAKSTRNIETKAQVVPPARSTAGDPTVPGSLFRQLVSEEDNTSAPSLFKLGWLSSMTK [COG1] | -0.122 | 49.8 °C | 49.4 °C | 0.0588 | -0.0852 | 0.918
2 | MATAEVLNIGKKLYEGKTKEVYELLDSPGKVLLQSKDQITAGNAARKNHLEGKAAISNKITSCIFQLLQEAGIKTAFTRKCGETAFIAPQCEMIPIEWVCRRIATGSFLKRNPGVKEGYKFYPPKVELFFKDDANNDPQWSEEQLIAAKFCFAGLLIGQTEVDIMSHATQAIFEILEKSWLPQNCTLVDMKIEFGVDVTTKEIVLADVIDNDSWRLWPSGDRSQQKDKQSYRDLKEVTPEGLQMVKKNFEWVAERVELLLKSESQCRVVVLMGSTSDLGHCEKIKKACGNFGIPCELRVTSAHKGPDETLRIKAEYEGDGIPTVFVAVAGRSNGLGPVMSGNTAYPVISCPPLTPDWGVQDVWSSLRLPSGLGCSTVLSPEGSAQFAAQIFGLSNHLVWSKLRASILNTWISLKQADKKIRECNL [PAICS] | 0.271 | 63.2 °C | 66.2 °C | -0.0303 | -0.183 | -0.625
3 | MATAMDWLPWSLLLFSLMCETSAFYVPGVAPINFHQNDPVEIKAVKLTSSRTQLPYEYYSLPFCQPSKITYKAENLGEVLRGDRIVNTPFQVLMNSEKKCEVLCSQSNKPVTLTVEQSRLVAERITEDYYVHLIADNLPVATRLELYSNRDSDDKKKEKDVQFEHGYRLGFTDVNKIYLHNHLSFILYYHREDMEEDQEHTYRVVRFEVIPQSIRLEDLKADEKSSCTLPEGTNSSPQEIDPTKENQLYFTYSVHWEESDIKWASRWDTYLTMSDVQIHWFSIINSVVVVFFLSGILSMIIIRTLRKDIANYNKEDDIEDTMEESGWKLVHGDVFRPPQYPMILSSLLGSGIQLFCMILIVIFVAMLGMLSPSSRGALMTTACFLFMFMGVFGGFSAGRLYRTLKGHRWKKGAFCTATLYPGVVFGICFVLNCFIWGKHSSGAVPFPTMVALLCMWFGISLPLVYLGYYFGFRKQPYDNPVRTNQIPRQIPEQRWYMNRFVGILMAGILPFGAMFIELFFIFSAIWENQFYYLFGFLFLVFIILVVSCSQISIVMVYFQLCAEDYRWWWRNFLVSGGSAFYVLVYAIFYFVNKLDIVEFIPSLLYFGYTALMVLSFWLLTGTIGFYAAYMFVRKIYAAVKID [TM9SF4] | -0.198 | 52.5 °C | 53.3 °C | -0.228 | 1.93 | 4.73
4 | MATANGAVENGQPDRKPPALPRPIRNLEVKFTKIFINNEWHESKSGKKFATCNPSTREQICEVEEGDKPDVDKAVEAAQVAFQRGSPWRRLDALSRGRLLHQLADLVERDRATLAALETMDTGKPFLHAFFIDLEGCIRTLRYFAGWADKIQGKTIPTDDNVVCFTRHEPIGVCGAITPWNFPLLMLVWKLAPALCCGNTMVLKPAEQTPLTALYLGSLIKEAGFPPGVVNIVPGFGPTVGAAISSHPQINKIAFTGSTEVGKLVKEAASRSNLKRVTLELGGKNPCIVCADADLDLAVECAHQGVFFNQGQCCTAASRVFVEEQVYSEFVRRSVEYAKKRPVGDPFDVKTEQGPQIDQKQFDKILELIESGKKEGAKLECGGSAMEDKGLFIKPTVFSEVTDNMRIAKEEIFGPVQPILKFKSIEEVIKRANSTDYGLTAAVFTKNLDKALKLASALESGTVWINCYNALYAQAPFGGFKMSGNGRELGEYALAEYTEVKTVTIKLGDKNP [ALDH1A3] | 0.122 | 55.4 °C | 57.5 °C | -0.0783 | -0.893 | -0.266
5 | MATATPVPPRMGSRAGGPTTPLSPTRLSRLQEKEELRELNDRLAVYIDKVRSLETENSALQLQVTEREEVRGRELTGLKALYETELADARRALDDTARERAKLQIELGKCKAEHDQLLLNYAKKESDLNGAQIKLREYEAALNSKDAALATALGDKKSLEGDLEDLKDQIAQLEASLAAAKKQLADETLLKVDLENRCQSLTEDLEFRKSMYEEEINETRRKHETRLVEVDSGRQIEYEYKLAQALHEMREQHDAQVRLYKEELEQTYHAKLENARLSSEMNTSTVNSAREELMESRMRIESLSSQLSNLQKESRACLERIQELEDLLAKEKDNSRRMLTDKEREMAEIRDQMQQQLNDYEQLLDVKLALDMEISAYRKLLEGEEERLKLSPSPSSRVTVSRASSSRSVRTTRGKRKRVDVEESEASSSVSISHSASATGNVCIEEIDVDGKFIRLKNTSEQDQPMGGWEMIRKIGDTSVSYKYTSRYVLKAGQTVTIWAANAGVTASPPTDLIWKNQNSWGTGEDVKVILKNSQGEEVAQRSTVFKTTIPEEEEEEEEAAGVVVEEELFHQQGTPRASNRSCAIM [LMNB1] | -1.97 | 51.1 °C | 50.1 °C | 1.92 | -12 | -7.18
6 | MATDELATKLSRRLQMEGEGGGETPEQPGLNGAAAAAAGAPDEAAEALGSADCELSAKLLRRADLNQGIGEPQSPSRRVFNPYTEFKEFSRKQIKDMEKMFKQYDAGRDGFIDLMELKLMMEKLGAPQTHLGLKNMIKEVDEDFDSKLSFREFLLIFRKAAAGELQEDSGLCVLARLSEIDVSSEGVKGAKSFFEAKVQAINVSSRFEEEIKAEQEERKKQAEEMKQRKAAFKELQSTFK [EFHD2] | 0.681 | 52.5 °C | 53.7 °C | 0.139 | 1.76 | 0.882
7 | MATDSWALAVDEQEAAVKSMTNLQIKEEKVKADTNGIIKTSTTAEKTDEEEKEDRAAQSLLNKLIRSNLVDNTNQVEVLQRDPNSPLYSVKSFEELRLKPQLLQGVYAMGFNRPSKIQENALPMMLAEPPQNLIAQSQSGTGKTAAFVLAMLSRVEPSDRYPQCLCLSPTYELALQTGKVIEQMGKFYPELKLAYAVRGNKLERGQKISEQIVIGTPGTVLDWCSKLKFIDPKKIKVFVLDEADVMIATQGHQDQSIRIQRMLPRNCQMLLFSATFEDSVWKFAQKVVPDPNVIKLKREEETLDTIKQYYVLCSSRDEKFQALCNLYGAITIAQAMIFCHTRKTASWLAAELSKEGHQVALLSGEMMVEQRAAVIERFREGKEKVLVTTNVCARGIDVEQVSVVINFDLPVDKDGNPDNETYLHRIGRTGRFGKRGLAVNMVDSKHSMNILNRIQEHFNKKIERLDTDDLDEIEKIAN [DDX19A] | 0.212 | 49.9 °C | 49.9 °C | -0.05 | 1.53 | 0.923
8 | MATDWLGSIVSINCGDSLGVYQGRVSAVDQVSQTISLTRPFHNGVKCLVPEVTFRAGDITELKILEIPGPGDNQHFGDLHQTELGPSGAGCQVGINQNGTGKFVKKPASSSSAPQNIPKRTDVKSQDVAVSPQQQQCSKSYVDRHMESLSQSKSFRRRHNSWSSSSRHPNQATPKKSGLKNGQMKNKDDECFGDDIEEIPDTDFDFEGNLALFDKAAVFEEIDTYERRSGTRSRGIPNERPTRYRHDENILESEPIVYRRIIVPHNVSKEFCTDSGLVVPSISYELHKKLLSVAEKHGLTLERRLEMTGVCASQMALTLLGGPNRLNPKNVHQRPTVALLCGPHVKGAQGISCGRHLANHDVQVILFLPNFVKMLESITNELSLFSKTQGQQVSSLKDLPTSPVDLVINCLDCPENVFLRDQPWYKAAVAWANQNRAPVLSIDPPVHEVEQGIDAKWSLALGLPLPLGEHAGRIYLCDIGIPQQVFQEVGINYHSPFGCKFVIPLHSA [EDC3] | -0.0361 | 50.1 °C | 50 °C | 0.245 | 1.79 | 1.47
9 | MATEHPEPPKAELQLPPPPPPGHYGAWAAQELQAKLAEIGAPIQGNREELVERLQSYTRQTGIVLNRPVLRGEDGDKAAPPPMSAQLPGIPMPPPPLGLPPLQPPPPPPPPPPGLGLGFPMAHPPNLGPPPPLRVGEPVALSEEERLKLAQQQAALLMQQEERAKQQGDHSLKEHELLEQQKRAAVLLEQERQQEIAKMGTPVPRPPQDMGQIGVRTPLGPRVAAPVGPVGPTPTVLPMGAPVPRPRGPPPPPGDENREMDDPSVGPKIPQALEKILQLKESRQEEMNSQQEEEEMETDARSSLGQSASETEEDTVSVSKKEKNRKRRNRKKKKKPQRVRGVSSESSGDREKDSTRSRGSDSPAADVEIEYVTEEPEIYEPNFIFFKRIFEAFKLTDDVKKEKEKEPEKLDKLENSAAPKKKGFEEEHKDSDDDSSDDEQEKKPEAPKLSKKKLRRMNRFTVAELKQLVARPDVVEMHDVTAQDPKLLVHLKATRNSVPVPRHWCFKRKYLQGKRGIEKPPFELPDFIKRTGIQEMREALQEKEEQKTMKSKMREKVRPKMGKIDIDYQKLHDAFFKWQTKPKLTIHGDLYYEGKEFETRLKEKKPGDLSDELRISLGMPVGPNAHKVPPPWLIAMQRYGPPPSYPNLKIPGLNSPIPESCSFGYHAGGWGKPPVDETGKPLYGDVFGTNAAEFQTKTEEEEIDRTPWGELEPSDEESSEEEEEEESDEDKPDETGFITPADSGLITPGGFSSVPAGMETPELIELRKKKIEEAMDGSETPQLFTVLPEKRTATVGGAMMGSTHIYDMSTVMSRKGPAPELQGVEVALAPEELELDPMAMTQKYEEHVREQQAQVEKEDFSDMVAEHAAKQKQKKRKAQPQDSRGGSKKYKEFKF [SF3B2] | -0.165 | 50.5 °C | 49.9 °C | 0.237 | -1.42 | -2.09
